From patent US20190324040A1

Legend:
[1] = target: Zika virus (ZIKV), whole virus particles (Zika virus); test: cell-based or functional assay
[2] = target: Zika virus (ZIKV), whole virus particles (Zika virus); test: virus capture ELISA

B1: CC4 mAb (P1604) (antibody, V domains shown)
VH: VQLVQESGPGPVKPSETLSLTCTVSGGSISSYYWSWIRQPAGKGLEWIGRIYTSGSTNYNPSLKSRVTMSVDTSKNQFSLKLSSVTAADTAVYYCARESGSLYMDVWGKGTAVTVSS
VL: DVVMTQSPATLSLPPGERATLSCRASQSVSSYLAWYQQKPGQAPRLLIYDASNRATGIPARFSGSGSGTDFTLTISSLEPEDFAVYYCQQRSNWPLTFGGGTKVDIK
Question: Which % of Zika virus Neutralized (Vero infectivity assay), antibody at 4 µg/ml [1] does the source give for B1 here?
Answer: 19.3%

Question: And the ZIKV binding Abs 450 nm [2]?
Answer: 0.87 Abs 450 nm
